Measurements published in patent US20160200782A1 (MOERAE MATRIX, published 2016).

How the values were obtained:
Assay in all cases: cell-based or functional assay
[1] = target: GRK6(h) (human, UniProt P43250 1-576, limits assumed)
[2] = target: Lyn(h) (human, UniProt P07948 1-512, limits assumed)
[3] = target: MARK1(h) (human, UniProt Q9P0L2 1-795, limits assumed)
[4] = target: MSK1(h) (human, UniProt O75582 1-802, limits assumed)
[5] = target: PASK(h) (human, UniProt Q96RG2 879-1323, limits assumed)
Sequence of PASK(h) (Q96RG2 879-1323 limits assumed): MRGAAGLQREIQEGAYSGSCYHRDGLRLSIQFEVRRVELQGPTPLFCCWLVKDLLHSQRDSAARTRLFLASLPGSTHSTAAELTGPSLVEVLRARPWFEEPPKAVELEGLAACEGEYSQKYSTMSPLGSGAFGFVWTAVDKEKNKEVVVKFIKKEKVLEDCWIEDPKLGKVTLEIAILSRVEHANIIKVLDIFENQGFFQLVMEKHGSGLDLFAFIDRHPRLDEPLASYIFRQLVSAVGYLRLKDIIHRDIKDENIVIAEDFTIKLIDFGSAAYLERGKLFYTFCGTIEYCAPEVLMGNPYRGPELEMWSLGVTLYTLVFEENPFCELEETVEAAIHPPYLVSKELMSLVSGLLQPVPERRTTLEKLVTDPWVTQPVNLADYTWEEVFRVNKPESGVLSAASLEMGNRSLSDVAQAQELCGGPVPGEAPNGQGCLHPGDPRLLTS

[6] = target: PDGFRα(V561D)(h) (human, UniProt P16234 550-1089, limits assumed)
[7] = target: Pim-1(h) (human, UniProt P11309 1-313)
Sequence of Pim-1(h) (P11309 whole entry): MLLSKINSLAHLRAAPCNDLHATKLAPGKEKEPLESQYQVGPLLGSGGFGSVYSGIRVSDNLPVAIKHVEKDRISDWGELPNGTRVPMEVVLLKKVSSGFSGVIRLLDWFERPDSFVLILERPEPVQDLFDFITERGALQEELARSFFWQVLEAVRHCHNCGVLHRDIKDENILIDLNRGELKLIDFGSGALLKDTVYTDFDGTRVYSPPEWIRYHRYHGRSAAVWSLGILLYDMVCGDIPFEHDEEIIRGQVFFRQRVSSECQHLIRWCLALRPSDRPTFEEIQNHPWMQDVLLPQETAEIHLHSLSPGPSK

[8] = target: PKCδ(h) (human, UniProt Q05655 1-676)
Sequence of PKCδ(h) (Q05655 whole entry, stated change not applied): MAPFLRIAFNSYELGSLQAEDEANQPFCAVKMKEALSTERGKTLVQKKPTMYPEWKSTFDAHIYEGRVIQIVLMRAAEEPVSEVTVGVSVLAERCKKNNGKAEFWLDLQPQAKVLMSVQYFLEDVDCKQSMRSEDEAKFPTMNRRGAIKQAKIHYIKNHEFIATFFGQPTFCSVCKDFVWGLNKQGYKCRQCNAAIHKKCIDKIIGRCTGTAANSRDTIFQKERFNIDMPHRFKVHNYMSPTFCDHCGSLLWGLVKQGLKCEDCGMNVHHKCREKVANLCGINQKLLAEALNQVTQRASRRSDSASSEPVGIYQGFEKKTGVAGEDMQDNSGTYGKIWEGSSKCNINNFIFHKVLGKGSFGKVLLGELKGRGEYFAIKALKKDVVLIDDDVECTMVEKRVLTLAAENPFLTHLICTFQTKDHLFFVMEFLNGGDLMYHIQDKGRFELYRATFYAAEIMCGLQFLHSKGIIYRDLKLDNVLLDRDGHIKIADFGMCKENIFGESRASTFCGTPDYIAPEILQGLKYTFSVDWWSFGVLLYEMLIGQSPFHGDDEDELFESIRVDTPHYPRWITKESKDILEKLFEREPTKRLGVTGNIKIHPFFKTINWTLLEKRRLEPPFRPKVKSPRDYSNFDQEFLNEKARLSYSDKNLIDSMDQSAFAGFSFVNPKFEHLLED

[9] = target: PKCτ(h) (human)
[10] = target: Rsk3(h) (human, UniProt Q15349 1-733, limits assumed)
Sequence of Rsk3(h) (Q15349 whole entry): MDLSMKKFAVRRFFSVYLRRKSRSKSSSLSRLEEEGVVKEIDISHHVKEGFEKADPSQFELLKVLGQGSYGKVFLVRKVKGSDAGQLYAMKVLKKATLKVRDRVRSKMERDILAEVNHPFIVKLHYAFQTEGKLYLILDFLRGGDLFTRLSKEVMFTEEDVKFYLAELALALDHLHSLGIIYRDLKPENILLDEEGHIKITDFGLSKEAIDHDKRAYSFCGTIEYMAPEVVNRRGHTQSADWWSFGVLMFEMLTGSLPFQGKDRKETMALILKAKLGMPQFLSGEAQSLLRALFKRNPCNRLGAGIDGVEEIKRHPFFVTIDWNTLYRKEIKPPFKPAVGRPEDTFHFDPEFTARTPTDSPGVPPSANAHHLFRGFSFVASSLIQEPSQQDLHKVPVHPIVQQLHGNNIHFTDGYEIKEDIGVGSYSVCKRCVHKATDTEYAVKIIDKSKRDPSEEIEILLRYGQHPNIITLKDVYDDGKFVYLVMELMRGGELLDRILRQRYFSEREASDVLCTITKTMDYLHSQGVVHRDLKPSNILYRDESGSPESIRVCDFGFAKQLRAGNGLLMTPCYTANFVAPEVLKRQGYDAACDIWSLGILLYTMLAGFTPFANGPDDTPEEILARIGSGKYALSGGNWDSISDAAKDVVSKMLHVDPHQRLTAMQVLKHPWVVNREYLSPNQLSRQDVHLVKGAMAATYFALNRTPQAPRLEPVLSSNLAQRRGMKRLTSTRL

[11] = target: BRK(h) (human, UniProt Q13882 1-451, limits assumed)
[12] = target: T1, ZAP-70(h) (human, UniProt P43403 1-619, limits assumed)
T1 sequence (looked up): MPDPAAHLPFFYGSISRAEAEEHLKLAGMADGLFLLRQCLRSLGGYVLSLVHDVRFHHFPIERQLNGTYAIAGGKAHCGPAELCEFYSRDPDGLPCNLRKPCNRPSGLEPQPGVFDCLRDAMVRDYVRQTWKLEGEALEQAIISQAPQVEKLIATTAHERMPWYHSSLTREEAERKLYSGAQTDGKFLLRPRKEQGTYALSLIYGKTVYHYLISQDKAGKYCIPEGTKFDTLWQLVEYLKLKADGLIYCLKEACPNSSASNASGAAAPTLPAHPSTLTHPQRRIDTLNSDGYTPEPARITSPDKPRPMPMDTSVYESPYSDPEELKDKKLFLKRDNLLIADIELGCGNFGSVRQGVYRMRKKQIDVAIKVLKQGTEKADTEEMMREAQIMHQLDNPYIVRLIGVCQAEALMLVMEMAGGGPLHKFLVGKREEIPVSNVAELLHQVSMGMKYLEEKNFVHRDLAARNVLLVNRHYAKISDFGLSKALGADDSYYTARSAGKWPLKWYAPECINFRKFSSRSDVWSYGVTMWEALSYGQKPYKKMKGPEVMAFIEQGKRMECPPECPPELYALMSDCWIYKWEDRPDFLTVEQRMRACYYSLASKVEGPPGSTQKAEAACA

[13] = target: CDK5/p25(h) (human, UniProt Q00535 1-292; Q15078 99-307)
[14] = target: CDK5/p35(h) (human, UniProt Q00535 1-292; Q15078 1-307)
[15] = target: T2, EphA3(h) (human, UniProt P29320 566-983, limits assumed)
T2 sequence (looked up): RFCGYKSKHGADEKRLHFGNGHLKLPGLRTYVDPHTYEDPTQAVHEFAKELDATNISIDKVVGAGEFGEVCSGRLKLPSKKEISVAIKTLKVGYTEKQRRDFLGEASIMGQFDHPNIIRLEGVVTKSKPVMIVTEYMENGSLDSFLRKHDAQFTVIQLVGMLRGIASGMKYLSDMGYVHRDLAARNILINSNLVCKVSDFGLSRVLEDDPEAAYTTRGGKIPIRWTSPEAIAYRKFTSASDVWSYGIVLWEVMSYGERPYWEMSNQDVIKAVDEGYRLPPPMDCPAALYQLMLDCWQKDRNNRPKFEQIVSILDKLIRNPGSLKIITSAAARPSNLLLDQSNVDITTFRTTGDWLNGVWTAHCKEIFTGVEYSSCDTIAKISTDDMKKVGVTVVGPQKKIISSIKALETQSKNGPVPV

[16] = target: T3, EphA5(h) (human, UniProt P54756 595-1037, limits assumed)
T3 sequence (looked up): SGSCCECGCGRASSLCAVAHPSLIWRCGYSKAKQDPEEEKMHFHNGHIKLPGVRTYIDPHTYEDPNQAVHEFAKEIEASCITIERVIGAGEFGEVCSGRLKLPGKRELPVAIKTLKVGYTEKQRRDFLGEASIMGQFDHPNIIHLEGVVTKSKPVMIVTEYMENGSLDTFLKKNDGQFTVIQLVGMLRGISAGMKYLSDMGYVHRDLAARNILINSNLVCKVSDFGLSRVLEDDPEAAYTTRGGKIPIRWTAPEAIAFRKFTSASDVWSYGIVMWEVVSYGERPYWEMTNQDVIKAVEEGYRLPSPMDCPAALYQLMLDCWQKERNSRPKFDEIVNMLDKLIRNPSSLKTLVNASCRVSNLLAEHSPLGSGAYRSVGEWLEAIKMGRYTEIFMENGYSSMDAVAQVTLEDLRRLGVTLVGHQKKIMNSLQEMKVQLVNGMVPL

[17] = target: Ab1(Q252H)(h) (human, UniProt P00519 27-1130, limits assumed)
Sequence of Ab1(Q252H)(h) (P00519 27-1130 Q252H limits assumed): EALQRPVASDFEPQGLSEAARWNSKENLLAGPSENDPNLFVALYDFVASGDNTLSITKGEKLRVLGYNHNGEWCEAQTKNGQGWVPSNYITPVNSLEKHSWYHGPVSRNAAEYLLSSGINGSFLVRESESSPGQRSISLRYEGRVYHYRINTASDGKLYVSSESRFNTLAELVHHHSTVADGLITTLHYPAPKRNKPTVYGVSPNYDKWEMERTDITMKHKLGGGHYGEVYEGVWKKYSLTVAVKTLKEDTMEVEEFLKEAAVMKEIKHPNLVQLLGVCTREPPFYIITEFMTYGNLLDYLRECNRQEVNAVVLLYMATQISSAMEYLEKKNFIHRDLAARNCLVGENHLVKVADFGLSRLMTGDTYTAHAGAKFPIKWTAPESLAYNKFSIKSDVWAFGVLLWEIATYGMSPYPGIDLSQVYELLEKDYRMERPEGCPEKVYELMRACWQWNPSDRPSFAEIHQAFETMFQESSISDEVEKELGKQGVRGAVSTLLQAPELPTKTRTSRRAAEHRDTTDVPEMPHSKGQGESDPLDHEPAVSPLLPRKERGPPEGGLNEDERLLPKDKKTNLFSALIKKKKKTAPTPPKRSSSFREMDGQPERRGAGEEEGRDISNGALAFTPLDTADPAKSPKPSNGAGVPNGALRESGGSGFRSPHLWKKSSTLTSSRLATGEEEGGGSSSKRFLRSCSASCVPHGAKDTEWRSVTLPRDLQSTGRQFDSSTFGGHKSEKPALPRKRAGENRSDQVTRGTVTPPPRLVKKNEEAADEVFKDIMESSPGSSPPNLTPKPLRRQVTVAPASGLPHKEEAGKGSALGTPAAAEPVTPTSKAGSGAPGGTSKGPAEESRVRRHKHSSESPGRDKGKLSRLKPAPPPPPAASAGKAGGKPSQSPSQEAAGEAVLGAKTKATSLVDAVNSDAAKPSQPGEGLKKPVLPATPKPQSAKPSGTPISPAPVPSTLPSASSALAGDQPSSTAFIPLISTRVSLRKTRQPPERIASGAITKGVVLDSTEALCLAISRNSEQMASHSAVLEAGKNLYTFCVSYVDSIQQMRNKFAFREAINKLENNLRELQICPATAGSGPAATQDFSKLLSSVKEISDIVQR

[18] = target: FGFR3(h) (human, UniProt P22607 397-806)
Sequence of FGFR3(h) (P22607 397-806 limits assumed): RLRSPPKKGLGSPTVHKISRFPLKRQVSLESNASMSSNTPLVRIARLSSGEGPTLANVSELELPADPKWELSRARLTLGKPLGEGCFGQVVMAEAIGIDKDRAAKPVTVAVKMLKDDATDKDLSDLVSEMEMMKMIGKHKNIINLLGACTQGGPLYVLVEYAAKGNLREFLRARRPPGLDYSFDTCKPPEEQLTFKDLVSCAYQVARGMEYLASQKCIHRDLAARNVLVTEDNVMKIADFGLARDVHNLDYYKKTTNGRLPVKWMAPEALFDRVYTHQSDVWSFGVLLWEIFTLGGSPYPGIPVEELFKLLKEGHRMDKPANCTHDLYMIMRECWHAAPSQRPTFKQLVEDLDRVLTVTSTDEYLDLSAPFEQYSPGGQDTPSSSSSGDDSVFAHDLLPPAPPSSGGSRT
Note: test concentration or dose not given here.

Sequence of MARK1(h) (Q9P0L2 whole entry): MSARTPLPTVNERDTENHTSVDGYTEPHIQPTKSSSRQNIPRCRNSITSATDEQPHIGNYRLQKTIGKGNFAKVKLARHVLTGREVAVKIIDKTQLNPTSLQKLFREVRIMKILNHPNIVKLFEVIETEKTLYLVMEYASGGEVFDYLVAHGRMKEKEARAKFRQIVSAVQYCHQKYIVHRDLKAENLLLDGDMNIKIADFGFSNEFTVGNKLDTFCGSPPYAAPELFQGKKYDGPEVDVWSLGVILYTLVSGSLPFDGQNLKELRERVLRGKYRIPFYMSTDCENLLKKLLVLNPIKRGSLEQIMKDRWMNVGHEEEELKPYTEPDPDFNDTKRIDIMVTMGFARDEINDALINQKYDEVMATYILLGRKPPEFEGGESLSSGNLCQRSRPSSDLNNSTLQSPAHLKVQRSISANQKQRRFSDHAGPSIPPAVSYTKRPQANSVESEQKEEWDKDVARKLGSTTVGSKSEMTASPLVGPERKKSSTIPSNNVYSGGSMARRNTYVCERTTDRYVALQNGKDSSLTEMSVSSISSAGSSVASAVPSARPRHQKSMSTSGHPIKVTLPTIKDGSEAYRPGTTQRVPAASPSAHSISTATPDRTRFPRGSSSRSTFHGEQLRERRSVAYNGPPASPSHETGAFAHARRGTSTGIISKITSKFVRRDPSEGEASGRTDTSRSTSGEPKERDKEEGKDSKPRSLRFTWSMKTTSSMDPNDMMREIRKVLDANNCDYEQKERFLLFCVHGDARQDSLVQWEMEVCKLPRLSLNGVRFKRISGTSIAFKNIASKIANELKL
Sequence of GRK6(h) (P43250 whole entry): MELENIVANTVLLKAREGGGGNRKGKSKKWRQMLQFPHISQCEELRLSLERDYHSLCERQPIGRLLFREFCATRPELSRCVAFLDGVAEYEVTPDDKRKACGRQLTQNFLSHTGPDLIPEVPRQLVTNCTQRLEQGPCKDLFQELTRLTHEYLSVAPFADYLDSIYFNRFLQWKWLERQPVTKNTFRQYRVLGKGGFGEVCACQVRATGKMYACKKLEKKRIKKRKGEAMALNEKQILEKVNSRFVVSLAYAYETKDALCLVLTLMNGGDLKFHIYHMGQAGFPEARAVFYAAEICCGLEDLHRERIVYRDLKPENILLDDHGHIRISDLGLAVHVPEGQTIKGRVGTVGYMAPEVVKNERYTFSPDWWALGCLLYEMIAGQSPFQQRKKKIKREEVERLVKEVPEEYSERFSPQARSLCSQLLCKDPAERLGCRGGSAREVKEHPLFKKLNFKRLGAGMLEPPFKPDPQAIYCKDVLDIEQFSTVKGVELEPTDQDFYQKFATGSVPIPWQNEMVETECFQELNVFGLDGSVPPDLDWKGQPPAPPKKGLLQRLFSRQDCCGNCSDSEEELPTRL

Row | Binder | % activity [1] [%] | % activity [2] [%] | % activity [3] [%] | % activity [4] [%] | % activity [5] [%] | % activity [6] [%] | % activity [7] [%] | % activity [8] [%] | % activity [9] [%] | % activity [10] [%] | % activity [11] [%] | % activity [12] [%] | % activity [13] [%] | % activity [14] [%] | % activity [15] [%] | % activity [16] [%] | % activity [17] [%] | % activity [18] [%]
1 | FAKLAARLYRKALARQLGVAA [MMI-0300] | 147 | 69 | 132 | 32 | 29 | 82 | 8 | 101 | 68 | 76 | 35 | 75 | 89 | 79 | 6 | 18 | 82 | 102
2 | KAFAKLAARLYRKALARQLGVAA [MMI-0400] | 141 | 3 | 120 | 28 | 28 | 100 | 7 | 90 | 46 | 71 | 18 | 33 | 92 | 76 | 12 | 24 | 98 | 0
